The test system of data set [1] is E. faecium strain JCM5804. The data set can be described thus: Lytic activity using presence or absence of a bacterial lump as an index. In kind it is cell-based. On the set-up: key to Lysis by endolysin: lyzed: +; not lyzed: −. As to conditions: 50 μg/mL. As for the experimental part: (§1) The hemolytic activity of each of the bacterial strains was measured with a hemolysis assay using a Nissui Plate Horse Blood Agar medium. The cytolysin-related gene was detected with PCR. The vancomycin resistance was evaluated using the method described in (2) in Example 2. The vanA gene and the vanB gene that are vancomycin-resistant genes were detected with PCR. Furthermore, each bacterial strain was aerobically cultured in a BHI culture medium, and centrifuged at 300×g for 5 minutes for collection. The cell pellets were washed, and resuspended in a HiTrap buffer. The phage-derived endolysin was added at a final concentration of 50 μg/mL to the cell resuspension liquid. The resulting suspension was incubated at 37° C., and the lytic activity was measured, using the presence or absence of a bacterial lump as an index.

For data set [2], the system named is E. faecalis strains JCM5803, JCM8902. The data set is described as above. More on the design: key to Lysis by endolysin: lyzed: +; not lyzed: −. Particulars: 50 μg/mL; for Lysis by endolysin: 37° C. The class given is cell-based. As for the experimental part:
as §1

In data set [3] the test system is GVHD model mice in which patient feces (OCU031_14) with Enterococcus dominance was transplanted. The data set can be described thus: Administration to GVHD model mice in which fecal sample was transplanted. The class given is in vivo. Particulars: 200 μg orally three times a week. As for the experimental part: All the animal experiments were performed with the approval of the Animal Care and Use Committee of Osaka Metropolitan University. […] The survival rate after Day 0 was monitored every day, and the composition of the enteric microbes on each of Day 0 and Day 8 was analyzed by 16S rRNA gene sequencing.

The test system of data set [4] is E. faecalis isolate OCU031_14_8. The data set can be described thus: Lytic activity by turbidity (OD600) of cell resuspension liquid. The class given is cell-based, Enterococcus faecalis. Particulars: final concentration of 50 μg/mL. The method, then: The E. faecalis isolate OCU031_14_8 was aerobically cultured in a BHI culture medium, and centrifuged at 3,000×g for 15 minutes for collection. The cell pellets were washed, and resuspended in a HiTrap buffer. The phage-derived endolysin was added at a final concentration of 50 μg/mL to the cell resuspension liquid. The turbidity (OD600) was measured with a TVS062CA BioPhoto recorder (ADVANTEC Co., Ltd., Tokyo, Japan) every 1 minute to measure the lytic activity.

Data set [5] deals with biofilms of 11 E. faecalis isolates. The data set can be described thus: Biofilm assay using crystal-violet staining. In kind it is cell-based, Enterococcus faecalis. Particulars: final concentration of 50 μg/mL, incubated overnight; all 11 E. faecalis strains. The method, then: A biofilm assay was performed, using crystal-violet staining, in accordance with a method described in the past literature (Yang, Y., et al., J Appl Oral Sci., 2018, 26: e20170566; Shao, C., et al., J Proteome res., 2012, 11 (9): 4465-75; He Z., et al., Int J Antimicrob Agents., 2012, 40 (1): 30-5). This assay is a method in which a crystal violet pigment is adsorbed into a bacteria-derived biofilm (comprising an extracellular matrix and the like), and then, ethanol is added to the resulting biofilm to elute the crystal violet pigment, the absorbance of which is measured to quantify the amount of the pigment.
Specifically, each of the 11 species of E. faecalis isolates was cultured at 37° C. overnight in a BHI culture medium supplemented with aztreonam (20 μg/mL), polymyxinB (20 μg/mL), and amphotericinB (4 μg/mL). Then, the isolate was diluted 100-fold with a new BHI culture medium, inoculated into a 96-well flat-bottomed polystyrene microtiter plate (Corning, Inc., Arizona, USA, 353072), and aerobically cultured further at 37° C. for 24 hours. Then, the 96-well plate was washed once with 200 μL of a HiTrap buffer, and 200 μL of phage-derived endolysin or a vehicle (SUMO protein having a His tag added thereto) was added (at a final concentration of 50 μg/mL). […] The absorbance of the sample was measured at 570 nm. […]

For data set [6], the system named is GVHD model mice to which E. faecalis OCU031_14_8 strain was administered. The experiment in a line: Administration to GVHD model mice to which E. faecalis was administered. The class given is in vivo. The method, then:
All the animal experiments were performed with the approval of the Animal Care and Use Committee of Osaka Metropolitan University. Germ-free C57BL/6 female mice (H2k^b) and SPF 129SvJ/JmsSlc female mice (6 to 8 weeks old) were purchased from SLC Japan Inc. (Hamamatsu, Japan) and CLEA Japan, Inc. (Tokyo, Japan) respectively. The mice were reared under temperature control (23±2° C.) under dark-period conditions from 8 pm to 8 am, and allowed to freely take sterile water and standard solid food for laboratory mice. The germ-free C57BL/6 mice were reared, one individual in one cage.
Before the stem cell transplantation, a suspension of E. faecalis OCU031_14_8 strain was orally administered to the germ-free C57BL/6 female mice. The suspension used was a suspension in which a 2.0×10^8 colony forming unit (cfu) was suspended in 200 μL of sterile PBS. […]
The survival rate after Day 0 was monitored every day. All the survival periods of the groups were statistically analyzed and compared using a generalized Wilcoxon test. […] The number of colonies formed was measured to quantify the amount of E. faecalis bacteria in the feces. […]

B1: phage-derived endolysin: endolysin of SEQ ID NO: 1 found in prophage sequences of 11 E. faecalis isolates; produced from a His-SUMO-labeled expression vector (protein)
chain: MTLNGIDISSWQSNINVGKEGVSADFVIIKATGGTGYINPDCDRAFQQAISSGKKVAVYHFANEVGLEGTAEQEAEFFLKNIKGYIGKAVLVLDWESTNKGDVPWAKRWLDYVQSKTGVKPMFYTYTNVLQSYNFSSIAKADYGLWLADYGANNPQGYSQPTPPSVPYWNFISMYQYTSNGQLPGWNGRLDLNVFFGDRNMWDKYANPKSNPTPAPPVPPKPKRRYGYRVDDLQFVNGIWQVRNDVLGQPDFDWTENGINVAYIDKINPATGENTPDQELKVGDYFAFQPSSVGIITEQYSLNGKTISHVQFPDEFIWLYTESVEKLIYG
modifications: His-SUMO tag; Enterococcus faecalis-derived prophage
notes: produced from a His-SUMO-labeled expression vector
Take B1: the “Lytic activity” value is given as “did not exhibit a lytic activity” in data set [1] (JCM5804 strain, E. faecium isolate); “exhibited a lytic activity” in data set [2] (JCM8902 strain, vancomycin-resistant and cytolysin-positive E. faecalis isolate). Further, the Lysis by endolysin result in data set [1] (strain JCM5804, 37° C.) is “−”; in data set [2] (strain JCM5803) it was “+”; in data set [2] (strain JCM8902 (vancomycin-resistant, cytolysin-positive)), “+”. For the same molecule, the “Ratio of Enterococcus bacteria present in the enteric microbes” value in data set [3] (8 days after the stem cell transplantation, 16S rRNA gene sequencing) is “decreased significantly”. Moreover, the Survival rate is 100% in data set [3] (30 days after the stem cell transplantation) and 100% in data set [6] (25 days after the stem cell transplantation, 200 μg orally three times a week). Also, the “Lytic activity (OD600 turbidity)” value in data set [4] is “lysed”. In addition, in data set [5], the “Lysis of biofilm (crystal violet, absorbance at 570 nm)” value is “lysed”. Moreover, in data set [6] (200 μg orally three times a week (10 mg/kg/day) from Day 0 until the third week), the “Amount of the E. faecalis bacteria in the feces” value is listed as “noticeable decrease”.

The record behind these values is patent US20250290057A1, “LYTIC AGENT FOR ENTEROCOCCUS FAECALIS” (priority 2022, published 2025).
